Laboratory results: US20150344570A1 (published 2015)

T1: FcγRIIa H (FcγRIIa type H, His at position 131), extracellular domain with C-terminal His tag (human, UniProt P12318 34-217)
T1 construct: extracellular domain; also called FcgRIIa H; 2aH
T1 sequence (looked up): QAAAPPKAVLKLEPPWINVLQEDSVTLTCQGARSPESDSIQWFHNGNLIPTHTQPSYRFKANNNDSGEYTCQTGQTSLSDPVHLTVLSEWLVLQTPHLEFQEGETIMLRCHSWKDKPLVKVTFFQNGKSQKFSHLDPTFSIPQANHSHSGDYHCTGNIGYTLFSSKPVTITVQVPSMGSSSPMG

B1: GpH7-A5/GpH7-B3 variant I332_02A/GpL16-k0 (antibody, human IgG1, kappa)
heavy 1: not shown
heavy 2: not shown
light: DIVMTQSPLSLPVTPGEPASISCQASESLVHSNRNTYLHWYLQKPGQSPQLLIYKVSNRFSGVPDRFSGSGSGTDFTLKISRVEAEDVGVYYCSQNTHVPPTFGQGTKVEIERTVAAPSVFIFPPSDEQLKSGTASVVCLLNNFYPREAKVQWKVDNALQSGNSQESVTEQDSKDSTYSLSSTLTLSKADYEKHKVYACEVTHQGLSSPVTKSFNRGEC
notes: one H chain mutated; also called He Ab
B2: GpH7-A5/GpH7-B3 variant L328_13S/GpL16-k0 (antibody, human IgG1, kappa)
heavy 1: not shown
heavy 2: not shown
light: B1 light
notes: as for B1
B3: GpH7-A5/GpH7-B3 variant S324_06M/GpL16-k0 (antibody, human IgG1, kappa)
heavy 1: not shown
heavy 2: not shown
light: B1 light
notes: as for B1
B4: GpH7-A5/GpH7-B3 variant K326_09D/GpL16-k0 (antibody, human IgG1, kappa)
heavy 1: not shown
heavy 2: not shown
light: B1 light
notes: as for B1
B5: GpH7-A5/GpH7-B3 variant T335_07I/GpL16-k0 (antibody, human IgG1, kappa)
heavy 1: not shown
heavy 2: not shown
light: B1 light
notes: as for B1
B6: GpH7-A5/GpH7-B3 variant S337_14T/GpL16-k0 (antibody, human IgG1, kappa)
heavy 1: not shown
heavy 2: not shown
light: B1 light
notes: as for B1
B7: GpH7-A5/GpH7-B3 variant T335_10E/GpL16-k0 (antibody, human IgG1, kappa)
heavy 1: not shown
heavy 2: not shown
light: B1 light
notes: as for B1
B8: GpH7-A5/GpH7-B3 variant K334_08L/GpL16-k0 (antibody, human IgG1, kappa)
heavy 1: not shown
heavy 2: not shown
light: B1 light
notes: as for B1
B9: GpH7-A5/GpH7-B3 variant I332_06M/GpL16-k0 (antibody, human IgG1, kappa)
heavy 1: not shown
heavy 2: not shown
light: B1 light
notes: as for B1
B10: GpH7-A5/GpH7-B3 variant I332_13S/GpL16-k0 (antibody, human IgG1, kappa)
heavy 1: not shown
heavy 2: not shown
light: B1 light
notes: as for B1
B11: GpH7-A5/GpH7-B3 variant I332_10E/GpL16-k0 (antibody, human IgG1, kappa)
heavy 1: not shown
heavy 2: not shown
light: B1 light
notes: as for B1
B12: GpH7-A5/GpH7-B3 variant L328_02A/GpL16-k0 (antibody, human IgG1, kappa)
heavy 1: not shown
heavy 2: not shown
light: B1 light
notes: as for B1
B13: GpH7-A5/GpH7-B3 variant Q295_05P/GpL16-k0 (antibody, human IgG1, kappa)
heavy 1: not shown
heavy 2: not shown
light: B1 light
notes: as for B1
B14: GpH7-A5/GpH7-B3 variant T335_01G/GpL16-k0 (antibody, human IgG1, kappa)
heavy 1: not shown
heavy 2: not shown
light: B1 light
notes: as for B1
B15: GpH7-A5/GpH7-B3 variant L235_20W/GpL16-k0 (antibody, human IgG1, kappa)
heavy 1: not shown
heavy 2: not shown
light: B1 light
notes: as for B1
B16: GpH7-A5/GpH7-B3 variant K334_16H/GpL16-k0 (antibody, human IgG1, kappa)
heavy 1: not shown
heavy 2: not shown
light: B1 light
notes: as for B1
B17: GpH7-A5/GpH7-B3 variant K326_10E/GpL16-k0 (antibody, human IgG1, kappa)
heavy 1: not shown
heavy 2: not shown
light: B1 light
notes: as for B1
B18: GpH7-A5/GpH7-B3 variant I332_18N/GpL16-k0 (antibody, human IgG1, kappa)
heavy 1: not shown
heavy 2: not shown
light: B1 light
notes: as for B1
B19: GpH7-A5/GpH7-B3 variant Q295_07I/GpL16-k0 (antibody, human IgG1, kappa)
heavy 1: not shown
heavy 2: not shown
light: B1 light
notes: as for B1
B20: GpH7-A5/GpH7-B3 variant S337_10E/GpL16-k0 (antibody, human IgG1, kappa)
heavy 1: not shown
heavy 2: not shown
light: B1 light
notes: as for B1
B21: GpH7-A5/GpH7-B3 variant H268_09D/GpL16-k0 (antibody, human IgG1, kappa)
heavy 1: not shown
heavy 2: not shown
light: B1 light
notes: as for B1
B22: GpH7-A5/GpH7-B3 variant H268_13S/GpL16-k0 (antibody, human IgG1, kappa)
heavy 1: not shown
heavy 2: not shown
light: B1 light
notes: as for B1
B23: GpH7-A5/GpH7-B3 variant I332_09D/GpL16-k0 (antibody, human IgG1, kappa)
heavy 1: not shown
heavy 2: not shown
light: B1 light
notes: as for B1
B24: GpH7-A5/GpH7-B3 variant I332_16H/GpL16-k0 (antibody, human IgG1, kappa)
heavy 1: not shown
heavy 2: not shown
light: B1 light
notes: as for B1
B25: GpH7-A5/GpH7-B3 variant K326_14T/GpL16-k0 (antibody, human IgG1, kappa)
heavy 1: not shown
heavy 2: not shown
light: B1 light
notes: as for B1
B26: GpH7-A5/GpH7-B3 variant S337_09D/GpL16-k0 (antibody, human IgG1, kappa)
heavy 1: not shown
heavy 2: not shown
light: B1 light
notes: as for B1
B27: GpH7-A5/GpH7-B3 variant I336_08L/GpL16-k0 (antibody, human IgG1, kappa)
heavy 1: not shown
heavy 2: not shown
light: B1 light
notes: as for B1
B28: GpH7-A5/GpH7-B3 variant I332_14T/GpL16-k0 (antibody, human IgG1, kappa)
heavy 1: not shown
heavy 2: not shown
light: B1 light
notes: as for B1
B29: GpH7-A5/GpH7-B3 variant A330_12R/GpL16-k0 (antibody, human IgG1, kappa)
heavy 1: not shown
heavy 2: not shown
light: B1 light
notes: as for B1
B30: GpH7-A5/GpH7-B3 variant I332_03V/GpL16-k0 (antibody, human IgG1, kappa)
heavy 1: not shown
heavy 2: not shown
light: B1 light
notes: as for B1
B31: GpH7-A5/GpH7-B3 variant L328_06M/GpL16-k0 (antibody, human IgG1, kappa)
heavy 1: not shown
heavy 2: not shown
light: B1 light
notes: as for B1
B32: GpH7-A5/GpH7-B3 variant H268_10E/GpL16-k0 (antibody, human IgG1, kappa)
heavy 1: not shown
heavy 2: not shown
light: B1 light
notes: as for B1
B33: GpH7-A5/GpH7-B3 variant S324_02A/GpL16-k0 (antibody, human IgG1, kappa)
heavy 1: not shown
heavy 2: not shown
light: B1 light
notes: as for B1
B34: GpH7-A5/GpH7-B3 variant I332_19Q/GpL16-k0 (antibody, human IgG1, kappa)
heavy 1: not shown
heavy 2: not shown
light: B1 light
notes: as for B1
B35: GpH7-A5/GpH7-B3 variant S267_02A/GpL16-k0 (antibody, human IgG1, kappa)
heavy 1: not shown
heavy 2: not shown
light: B1 light
notes: as for B1
B36: GpH7-A5/GpH7-B3 variant G236_07I/GpL16-k0 (antibody, human IgG1, kappa)
heavy 1: not shown
heavy 2: not shown
light: B1 light
notes: as for B1
B37: GpH7-A5/GpH7-B3 variant S324_09D/GpL16-k0 (antibody, human IgG1, kappa)
heavy 1: not shown
heavy 2: not shown
light: B1 light
notes: as for B1
B38: GpH7-A5/GpH7-B3 variant I332_15Y/GpL16-k0 (antibody, human IgG1, kappa)
heavy 1: not shown
heavy 2: not shown
light: B1 light
notes: as for B1
B39: GpH7-A5/GpH7-B3 variant K334_07[ (read as K334_07I)/GpL16-k0 (antibody, human IgG1, kappa)
heavy 1: not shown
heavy 2: not shown
light: B1 light
notes: as for B1
B40: GpH7-A5/GpH7-B3 variant I336_06M/GpL16-k0 (antibody, human IgG1, kappa)
heavy 1: not shown
heavy 2: not shown
light: B1 light
notes: as for B1
B41: GpH7-A5/GpH7-B3 variant K334_03V/GpL16-k0 (antibody, human IgG1, kappa)
heavy 1: not shown
heavy 2: not shown
light: B1 light
notes: as for B1
B42: GpH7-A5/GpH7-B3 variant H268_18N/GpL16-k0 (antibody, human IgG1, kappa)
heavy 1: not shown
heavy 2: not shown
light: B1 light
notes: as for B1
B43: GpH7-A5/GpH7-B3 variant G236_03V/GpL16-k0 (antibody, human IgG1, kappa)
heavy 1: not shown
heavy 2: not shown
light: B1 light
notes: as for B1
B44: GpH7-A5/GpH7-B3 variant G236_10E/GpL16-k0 (antibody, human IgG1, kappa)
heavy 1: not shown
heavy 2: not shown
light: B1 light
notes: as for B1
B45: GpH7-A5/GpH7-B3 variant K326_19Q/GpL16-k0 (antibody, human IgG1, kappa)
heavy 1: not shown
heavy 2: not shown
light: B1 light
notes: as for B1
B46: GpH7-A5/GpH7-B3 variant I332_04F/GpL16-k0 (antibody, human IgG1, kappa)
heavy 1: not shown
heavy 2: not shown
light: B1 light
notes: as for B1
B47: GpH7-A5/GpH7-B3 variant K334_04F/GpL16-k0 (antibody, human IgG1, kappa)
heavy 1: not shown
heavy 2: not shown
light: B1 light
notes: as for B1
B48: GpH7-A5/GpH7-B3 variant K326_06M/GpL16-k0 (antibody, human IgG1, kappa)
heavy 1: not shown
heavy 2: not shown
light: B1 light
notes: as for B1
B49: GpH7-A5/GpH7-B3 variant S337_16H/GpL16-k0 (antibody, human IgG1, kappa)
heavy 1: not shown
heavy 2: not shown
light: B1 light
notes: as for B1
B50: GpH7-A5/GpH7-B3 variant K334_15Y/GpL16-k0 (antibody, human IgG1, kappa)
heavy 1: not shown
heavy 2: not shown
light: B1 light
notes: as for B1
B51: GpH7-A5/GpH7-B3 variant S324_10E/GpL16-k0 (antibody, human IgG1, kappa)
heavy 1: not shown
heavy 2: not shown
light: B1 light
notes: as for B1
B52: GpH7-A5/GpH7-B3 variant L328_14T/GpL16-k0 (antibody, human IgG1, kappa)
heavy 1: not shown
heavy 2: not shown
light: B1 light
notes: as for B1
B53: GpH7-A5/GpH7-B3 variant S324_20W/GpL16-k0 (antibody, human IgG1, kappa)
heavy 1: not shown
heavy 2: not shown
light: B1 light
notes: as for B1
B54: GpH7-A5/GpH7-B3 variant S239_09D/GpL16-k0 (antibody, human IgG1, kappa)
heavy 1: not shown
heavy 2: not shown
light: B1 light
notes: as for B1
B55: GpH7-A5/GpH7-B3 variant K334_14T/GpL16-k0 (antibody, human IgG1, kappa)
heavy 1: not shown
heavy 2: not shown
light: B1 light
notes: as for B1
B56: GpH7-A5/GpH7-B3 variant P271_01G/GpL16-k0 (antibody, human IgG1, kappa)
heavy 1: not shown
heavy 2: not shown
light: B1 light
notes: as for B1

Target: T1, FcγRIIa H (FcγRIIa type H, His at …)
Assay: SPR Biacore, relative binding, GpH7-A5/GpH7-B3/GpL16-k0 (HeCon Ab)=100
Description: Analysis of interaction between objective antibody and the FcγR was carried out using Biacore T100 (GE Healthcare). HBS-EP+ (GE Healthcare) was used as the running buffer, and the measurement temperature was set to 25° C. Chips produced by immobilizing the antigen peptide by the amine coupling method to a Series S Sencor Chip CM5 (GE Healthcare), or alternatively, chips produced by allowing preliminarily biotinylated antigen peptides to interact with and immobilize onto a Series S Sensor Chip SA (certified) (GE Healthcare) were used. Antibodies of interest were captured onto an antigen peptide-immobilized chip, and allowed to interact to each FcγR diluted with running buffer. To regenerate and repeatedly use the chip, the antibodies captured on the chip were washed off by reacting 10 mM glycine-HCl, pH 1.5.

Binder | He/Con_2aH
B1 | 111 % of control
B2 | 123 % of control
B3 | 117 % of control
B4 | 110 % of control
B5 | 108 % of control
B6 | 103 % of control
B7 | 108 % of control
B8 | 104 % of control
B9 | 110 % of control
B10 | 110 % of control
B11 | 108 % of control
B12 | 130 % of control
B13 | 103 % of control
B14 | 103 % of control
B15 | 118 % of control
B16 | 104 % of control
B17 | 102 % of control
B18 | 110 % of control
B19 | 102 % of control

Binder | He/Con_2aH
B20 | 102 % of control
B21 | 133 % of control
B22 | 112 % of control
B23 | 118 % of control
B24 | 109 % of control
B25 | 114 % of control
B26 | 107 % of control
B27 | 106 % of control
B28 | 115 % of control
B29 | 108 % of control
B30 | 105 % of control
B31 | 104 % of control
B32 | 124 % of control
B33 | 102 % of control
B34 | 108 % of control
B35 | 120 % of control
B36 | 115 % of control
B37 | 106 % of control
B38 | 115 % of control

Binder | He/Con_2aH
B39 | 110 % of control
B40 | 106 % of control
B41 | 109 % of control
B42 | 112 % of control
B43 | 119 % of control
B44 | 111 % of control
B45 | 101 % of control
B46 | 104 % of control
B47 | 106 % of control
B48 | 103 % of control
B49 | 101 % of control
B50 | 106 % of control
B51 | 103 % of control
B52 | 116 % of control
B53 | 103 % of control
B54 | 114 % of control
B55 | 103 % of control
B56 | 107 % of control
